The term Kd denotes the free concentration of one partner at which half of the binding sites on the other are occupied at equilibrium, for simple one-to-one binding. High values mean a looser complex, low ones a tighter complex. Usually koff stands for the rate constant with which the complex falls apart. A high value points to a short-lived complex. The stoichiometry N is the number of molecules, sites or subunits per partner or assembly.

5 molecules from PMC7545189, “Structural characterization of the ICOS/ICOS-L immune complex reveals high molecular mimicry by therapeutic antibodies” (Nature Communications, 2020) can be followed below.

The target of assay [1] is T1, human ICOS-L ectodomain (residues 19-248), His-tagged, immobilised on Ni-NTA biosensors (human, UniProt O75144 19-248).
T1 construct: also called ICOS ligand; CD275; source: HEK 293F, transiently transfected, purified from the supernatant (HisTrap Ni-NTA); not shown: His6, C-terminal, kept
T1 sequence (looked up): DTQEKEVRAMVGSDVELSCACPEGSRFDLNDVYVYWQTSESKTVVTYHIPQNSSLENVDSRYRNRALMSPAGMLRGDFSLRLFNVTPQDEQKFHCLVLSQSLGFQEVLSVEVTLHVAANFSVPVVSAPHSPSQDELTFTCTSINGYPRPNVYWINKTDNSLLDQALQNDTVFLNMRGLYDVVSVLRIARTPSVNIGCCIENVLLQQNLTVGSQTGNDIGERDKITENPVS
As to the kind of experiment: BLI; His-tagged ICOS-L on Ni-NTA biosensors (0.8 nm), untagged ICOS (wild-type and mutants) as analyte, 1:2 serial dilutions from 125 nM; PBS pH 7.4, 0.01% BSA, 0.002% Tween; 1:1 fit; apparent constant (avidity of the ICOS homodimer). Particulars: both partners purified.

Assay [2] addresses T2, human ICOS ectodomain (residues 21-138), untagged, disulfide-linked homodimer (human, UniProt Q9Y6W8 21-138).
T2 chain: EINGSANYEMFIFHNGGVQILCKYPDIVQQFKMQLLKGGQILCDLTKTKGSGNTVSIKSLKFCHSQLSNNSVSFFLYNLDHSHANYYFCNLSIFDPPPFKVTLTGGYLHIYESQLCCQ
As to the kind of experiment: BLI; ICOS-L immobilized.

Assay [3] deals with T2, human ICOS ectodomain (residues …). Put plainly: BLI; ICOS-L immobilized.
Assay [4] deals with T3, human ICOS ectodomain N110Q (N110 glycan knock-out mutant), analyte (human, UniProt Q9Y6W8 21-138, N110Q).
T3 sequence: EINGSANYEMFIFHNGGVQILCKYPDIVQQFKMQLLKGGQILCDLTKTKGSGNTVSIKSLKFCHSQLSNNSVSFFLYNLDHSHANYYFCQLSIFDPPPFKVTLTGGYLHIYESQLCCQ
Put plainly: BLI. Background: In BLI a coated tip is dipped into the sample, and binding shifts an interference pattern.

Assay [5] has as its target T3, human ICOS ectodomain N110Q (N110 …). As to the kind of experiment: BLI. The source holds these as a separate data set.
The target of assay [6] is T4, human ICOS-L ectodomain (residues 19-248), crystallised in complexes (human, UniProt O75144 19-248).
T4 construct: not shown: Venus (monomeric variant), C-terminal, cleaved; His6, C-terminal, cleaved
T4 sequence (looked up): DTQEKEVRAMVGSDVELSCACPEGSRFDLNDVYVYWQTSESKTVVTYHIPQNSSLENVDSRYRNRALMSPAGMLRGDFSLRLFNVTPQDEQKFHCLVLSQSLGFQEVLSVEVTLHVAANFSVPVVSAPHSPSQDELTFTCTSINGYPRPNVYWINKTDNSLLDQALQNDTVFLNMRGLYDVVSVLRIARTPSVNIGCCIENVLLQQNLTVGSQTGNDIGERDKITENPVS
As to the kind of experiment: crystal structure; ICOS (21-129)/ICOS-L (19-248)/VNAR complex, co-expressed and co-purified, 3.3 A; 0.1 M HEPES pH 7.0, 30% Jeffamine ED-2001. The following applies: both partners purified.

Assay [7] concerns the target T5, human ICOS ectodomain (residues 21-138), His-tagged, immobilised on Ni-NTA biosensors (human, UniProt Q9Y6W8).
T5 construct: human ICOS ectodomain, UniProtKB Q9Y6W8, residues 21-138, followed by a TEV cleavage site; The His6 tag of the vector lies C-terminal of TEV site and Venus, so the His-tagged form used for loading is probably the undigested ICOS-TEV-Venus-His6 fusion; also called inducible T-cell co-stimulator; CD278; source: HEK 293F, transiently transfected, purified from the supernatant (HisTrap Ni-NTA); not …
As to the kind of experiment: BLI; His-tagged ICOS or ICOS-L on Ni-NTA biosensors, Fabs as analytes (prezalumab 1:2 serial dilutions from 31 nM); PBS pH 7.4, 0.01% BSA, 0.002% Tween; 1:1 fit. Particulars: both partners purified.

For assay [8], the target named is T6, human ICOS ectodomain N110Q, His-tagged, immobilised for STIM003 binding (human, UniProt Q9Y6W8 21-138, N110Q).
T6 sequence: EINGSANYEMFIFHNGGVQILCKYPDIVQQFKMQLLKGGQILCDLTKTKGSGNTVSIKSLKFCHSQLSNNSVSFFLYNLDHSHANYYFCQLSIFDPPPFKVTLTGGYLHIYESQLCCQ
As to the kind of experiment: BLI.

Assay [9] concerns the target T7, human ICOS ectodomain (residues 21-138), His-tagged, immobilised on Ni-NTA biosensors (human, UniProt Q9Y6W8 21-138).
T7 chain: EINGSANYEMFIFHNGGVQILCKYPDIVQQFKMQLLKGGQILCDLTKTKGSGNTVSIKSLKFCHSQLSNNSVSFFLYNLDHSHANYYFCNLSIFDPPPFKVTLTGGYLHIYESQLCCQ
As to the kind of experiment: BLI.

For assay [10], the target named is T6, human ICOS ectodomain N110Q, …. As to the kind of experiment: BLI. This is another data set of the same source.
The target in assay [11] is T7, human ICOS ectodomain (residues …). Put plainly: BLI.
Assay [12] deals with T8, human ICOS C136A C137A N23Q (residues 21-138), crystallised with STIM003 Fab (human, UniProt Q9Y6W8, C136A | C137A | N23Q).
T8 construct: human ICOS ectodomain, UniProtKB Q9Y6W8, residues 21-138 with C136A, C137A and N23Q; not shown: Venus (monomeric variant), C-terminal, cleaved; His6, C-terminal, cleaved
T8 sequence (Q9Y6W8 21-138 N23Q/C136A/C137A): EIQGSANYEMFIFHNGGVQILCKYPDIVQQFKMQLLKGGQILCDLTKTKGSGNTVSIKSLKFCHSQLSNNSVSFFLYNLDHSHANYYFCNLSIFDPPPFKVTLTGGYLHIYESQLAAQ
As to the kind of experiment: crystal structure; ICOS C136A C137A N23Q/STIM003 Fab complex, co-expressed and co-purified, then incubated 1:5 with anti-kappa VHH and gel filtered, 2.38 A; 0.2 M di-sodium hydrogen phosphate, 20% PEG 3350. The following applies: both partners purified.

B1: human ICOS ectodomain N110Q (N110 glycan knock-out mutant), analyte (receptor, UniProt Q9Y6W8 21-138, looked up)
chain: EINGSANYEMFIFHNGGVQILCKYPDIVQQFKMQLLKGGQILCDLTKTKGSGNTVSIKSLKFCHSQLSNNSVSFFLYNLDHSHANYYFCQLSIFDPPPFKVTLTGGYLHIYESQLCCQ
notes: human ICOS ectodomain, UniProtKB Q9Y6W8, N110Q removes the N-linked glycosylation site; limits are those of the ectodomain construct of the methods; also called ICOS N110Q; ICOS N110 glycan knock-out mutant; source: HEK 293F, transiently transfected, purified (as the ICOS ectodomain); not shown: Venus (monomeric variant), C-terminal, cleaved; His6, C-terminal, cleaved
As to B1, in [1], the “fold improvement in binding affinity against WT ICOS” value worked out at 4.3 fold.

B2: human ICOS-L ectodomain (residues 19-248), His-tagged, immobilised on Ni-NTA biosensors (ligand)
chain: DTQEKEVRAMVGSDVELSCACPEGSRFDLNDVYVYWQTSESKTVVTYHIPQNSSLENVDSRYRNRALMSPAGMLRGDFSLRLFNVTPQDEQKFHCLVLSQSLGFQEVLSVEVTLHVAANFSVPVVSAPHSPSQDELTFTCTSINGYPRPNVYWINKTDNSLLDQALQNDTVFLNMRGLYDVVSVLRIARTPSVNIGCCIENVLLQQNLTVGSQTGNDIGERDKITENPVS
With B2, the Kd in [2] worked out at 3 nM; in assay [5] it was 0.7 nM. Besides, the off-rate constant (koff) in [3] was found to be 0.0012 s⁻¹; in assay [4], 0.00071 s⁻¹.

B3: human ICOS ectodomain (residues 21-129), crystallised with ICOS-L and VNAR (domain or fragment, UniProt Q9Y6W8 21-129, looked up)
chain: EINGSANYEMFIFHNGGVQILCKYPDIVQQFKMQLLKGGQILCDLTKTKGSGNTVSIKSLKFCHSQLSNNSVSFFLYNLDHSHANYYFCNLSIFDPPPFKVTLTGGYLH
modifications: N-linked glycan at N110 seen in the structure (two GlcNAc and three mannose residues)
notes: not shown: Venus (monomeric variant), C-terminal, cleaved; His6, C-terminal, cleaved
As to B3, in [6], the “stoichiometry N” value was determined as 1.

B4: STIM003 Fab (purified, for BLI) (Fab, V domains shown)
VH: EVQLVESGGGVVRPGGSLRLSCVASGVTFDDYGMSWVRQAPGKGLEWVSGINWNGGDTDYSDSVKGRFTISRDNAKNSLYLQMNSLRAEDTALYYCARDFYGSGSYYHVPFDYWGQGILVTVSS
VL: EIVLTQSPGTLSLSPGERATLSCRASQSVSRSYLAWYQQKRGQAPRLLIYGASSRATGIPDRFSGDGSGTDFTLSISRLEPEDFAVYYCHQYDMSPFTFGPGTKVDIK
notes: Fab heavy chain of STIM003; Fab light chain (kappa) of STIM003; Kappa light chain (KappaSelect purification); also called anti-ICOS monoclonal antibody; source: HEK 293F, transiently co-transfected LC and HC, purified (KappaSelect, MonoS, Superdex 200)
As for B4, the binding result in assay [7] is “binds”. Moreover, the koff is 0.001 s⁻¹ in assay [8] and 0.00072 s⁻¹ in assay [9]. Further, the Kd was determined as 1.8 nM in assay [10] and 2 nM in assay [11].

B5: STIM003 Fab (co-expressed with ICOS, for the crystal structure) (Fab, V domains shown)
VH: EVQLVESGGGVVRPGGSLRLSCVASGVTFDDYGMSWVRQAPGKGLEWVSGINWNGGDTDYSDSVKGRFTISRDNAKNSLYLQMNSLRAEDTALYYCARDFYGSGSYYHVPFDYWGQGILVTVSS
VL: EIVLTQSPGTLSLSPGERATLSCRASQSVSRSYLAWYQQKRGQAPRLLIYGASSRATGIPDRFSGDGSGTDFTLSISRLEPEDFAVYYCHQYDMSPFTFGPGTKVDIK
notes: as the heavy chain of m12; as the light chain (kappa) of m12; source: HEK 293S (Gnt I-/-), co-transfected with ICOS C136A C137A N23Q, complex purified
Take B5: the binding result in assay [12] is reported as “binds”.
